Results on four substances are retold here after article PMC8668187.

“And” between values parts separate entries of the source, which are not always exact repeats. Equal entries are not always repeated. Bounds are passed on as bounds.

Assay [1] has as its target CsGSIb EVK138DIQ mutant (Camellia sinensis).
The target is the same in assay [2]. Put plainly: SEC-MALS; Superdex 200 10/300 GL with MALS and QELS; 50 mM KPi pH 7.0, 100 mM NaCl, 1 mM β-mercaptoethanol, 0.05 % NaN3; room temperature (~23 °C); self-association of the GS. In general terms: SEC sorts molecules by how far they enter the pores of the column.
The target is the same in assay [3]. The experiment in a line: AUC; sedimentation velocity, 0.1/0.25/0.5 mg/mL, 50 mM Tris-HCl pH 7.4, 100 mM NaCl, 1.5 mM β-mercaptoethanol, rotor at 20 °C (results: room temperature); global fit; decamer to two pentamers.
Assay [4] deals with glutamine synthetase GmGSβ2 from Glycine max (Glycine max). Put plainly: SEC-MALS; Superdex 200 10/300 GL with MALS and QELS; 50 mM KPi pH 7.0, 100 mM NaCl, 1 mM β-mercaptoethanol, 0.05 % NaN3; room temperature (~23 °C); self-association of the GS.
The target in assay [5] is CsGSIb I143L mutant (Camellia sinensis).
Assay [6] shares this target. The experiment in a line: SEC-MALS; Superdex 200 10/300 GL with MALS and QELS; 50 mM KPi pH 7.0, 100 mM NaCl, 1 mM β-mercaptoethanol, 0.05 % NaN3; room temperature (~23 °C); self-association of the GS.
For assay [7] the target is unchanged. The experiment in a line: AUC; sedimentation velocity, 0.1/0.25/0.5 mg/mL, 50 mM Tris-HCl pH 7.4, 100 mM NaCl, 1.5 mM β-mercaptoethanol, rotor at 20 °C (results: room temperature); global fit; decamer to two pentamers.
The target of assay [8] is glutamine synthetase CsGSIb from Camellia sinensis, wild type (Camellia sinensis).
For assay [9] the target is unchanged. The experiment in a line: SEC-MALS; Superdex 200 10/300 GL with MALS and QELS; 50 mM KPi pH 7.0, 100 mM NaCl, 1 mM β-mercaptoethanol, 0.05 % NaN3; room temperature (~23 °C); self-association of the GS.
The target is the same in assay [10]. Put plainly: AUC; sedimentation velocity, 0.1/0.25/0.5 mg/mL, 50 mM Tris-HCl pH 7.4, 100 mM NaCl, 1.5 mM β-mercaptoethanol, rotor at 20 °C (results: room temperature); global fit; decamer to two pentamers.

The substance CsGSIb EVK138DIQ mutant (enzyme) registered a glutamine synthetase activity, increase over wild-type CsGSIb (1 μM monomer enzyme, 30 min, 37 °C) in assay [1] of 64 fold. The fraction decameric in assay [2] was determined as 72%. Moreover, the Kd (usually the free concentration of one partner at which half of the binding sites on the other are occupied at equilibrium, for simple one-to-one binding) in [3] came out at 40 nM.
For “glutamine synthetase GmGSβ2 from Glycine max (enzyme)”, the stoichiometry N (as a rule, a count of units in the complex or per binding partner) in assay [4] is 10.
The substance CsGSIb I143L mutant (enzyme) displayed a glutamine synthetase activity, increase over wild-type CsGSIb (1 μM monomer enzyme, 30 min, 37 °C) in assay [5] of 76 fold. The substance further yielded a fraction decameric in assay [6] above 95%. In assay [7], this substance gave a Kd of 10 nM.
In [8], “glutamine synthetase CsGSIb from Camellia sinensis, wild type (enzyme)” had a glutamine synthetase activity on raising the CsGSIb concentration from 1 μM to 5 μM (monomer) of 30 fold. In addition, in [9], the fraction decameric came to 18%; the fraction pentameric came out at 82%; the stoichiometry N is 5 and 10. In assay [10], the Kd was determined as 270 nM; the stoichiometry N is 10 and 5.
